± gives the standard deviation of the averaged measurements.
B1: library; a variant is named by its letters at N, in order (parent)
chain: GCUGUCACCGGUGUAUUACCCUAGUGGUCGACCGGUCUGAUGAGUCUNNNNNNAGACGAAACAGC

How the values were obtained:
hypoxanthine [1] = variants of: B1; assay: FACS-Seq fitted mean relative fluorescence mCherry/BFP without ligand (log10 relative fluorescence); ligand: hypoxanthine (xanthine aptamer); higher = higher reporter protein expression; settings: HEK293T, ligand present: no
Summary of the method: (§1)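 Fluorescence is reported as a normalized fitted mean of sorted-bin read counts. Lentivirally transduced HEK293T libraries (mCherry ribozyme-switch reporter, EF1α-BFP marker) were enriched, treated with or without ligand for 48 h, and sorted into 6 mCherry/BFP bins for MiSeq sequencing of PCR-amplified genomic DNA. The normal fit was on log10(mCherry/BFP), scaled to five spiked-in control ribozymes.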

hypoxanthine [2] = variants of: B1; assay: normalized RNA/DNA level with ligand (relative to sTRSVctl = 100) (log10 (% of sTRSVctl)); ligand: hypoxanthine (xanthine aptamer); higher = less ribozyme self-cleavage, higher mRNA level; settings: ligand concentration (+) RNA-Seq: 5 mM, HEK293T, reporter: mCherry (pCS4076), ligand present: yes
Description: (§2)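 Hammerhead (sTRSV) ribozyme switch libraries with a ligand aptamer grafted on stem I and a randomized N4-6 loop II, cloned into the 3' UTR of mCherry and transiently transfected into HEK293T cells; RNA-Seq 72 h post transfection with ligand added 1 h before transfection; RNA read count / plasmid DNA read count normalized to the non-cleaving sTRSVctl (x100), log10; sequences with >100 DNA reads. FACS-Seq: lentiviral library sorted into 6 bins after 48 h ligand, log-normal fit mean of mCherry/BFP scaled to controls. Printed sequences are partial switch sequences.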

hypoxanthine [3] = variants of: B1; assay: normalized RNA/DNA level without ligand (relative to sTRSVctl = 100) (log10 (% of sTRSVctl)); ligand: hypoxanthine (xanthine aptamer); higher = less ribozyme self-cleavage, higher mRNA level; settings: HEK293T, reporter: mCherry (pCS4076), ligand present: no
Description: as §2

hypoxanthine [4] = variants of: B1; assay: FACS-Seq fitted mean relative fluorescence mCherry/BFP with ligand (log10 relative fluorescence); ligand: hypoxanthine (xanthine aptamer); ligand concentration (+) FACS-Seq: 5 mM; higher = higher reporter protein expression; settings: HEK293T, ligand present: yes
Summary of the method: as §1

Variant	FACS-Seq fitted mean (log10) (hypoxanthine [1])	normalized RNA/DNA level with ligand (log10) (hypoxanthine [2])	normalized RNA/DNA level without ligand (log10) (hypoxanthine [3])	FACS-Seq fitted mean (log10) (hypoxanthine [4])
GCUGUCACCGGUGUAUUACCCUAGUGGUCGACCGGUCUGAUGAGUCUUAACCCAGACGAAACAGC [UAACCC]	0.667 ± 0.078	1.94 ± 0.08	1.856 ± 0.0018	0.767 ± 0.065
GCUGUCACCGGUGUAUUACCCUAGUGGUCGACCGGUCUGAUGAGUCUUAACCGAGACGAAACAGC [UAACCG]	0.631 ± 0.023	1.95 ± 0.04	1.68 ± 0.033	0.756 ± 0.013
GCUGUCACCGGUGUAUUACCCUAGUGGUCGACCGGUCUGAUGAGUCUGAACCGAGACGAAACAGC [GAACCG]	0.156 ± 0.11	1.9 ± 0.08	1.48 ± 0.052	0.296 ± 0.017
GCUGUCACCGGUGUAUUACCCUAGUGGUCGACCGGUCUGAUGAGUCUGAACCAAGACGAAACAGC [GAACCA]	0.493 ± 0.094	1.948 ± 0.018	1.816 ± 0.014	0.365 ± 0.0063
GCUGUCACCGGUGUAUUACCCUAGUGGUCGACCGGUCUGAUGAGUCUCAACAUAGACGAAACAGC [CAACAU]	0.722 ± 0.052	1.87 ± 0.032	1.75 ± 0.035	0.672 ± 0.078
GCUGUCACCGGUGUAUUACCCUAGUGGUCGACCGGUCUGAUGAGUCUAAACCCAGACGAAACAGC [AAACCC]	0.474 ± 0.095	1.95 ± 0.022	1.833 ± 0.0068	0.431 ± 0.021
GCUGUCACCGGUGUAUUACCCUAGUGGUCGACCGGUCUGAUGAGUCUAAACCUAGACGAAACAGC [AAACCU]	0.484 ± 0.082	1.94 ± 0.033	1.87 ± 0.02	0.2749 ± 0.00055
GCUGUCACCGGUGUAUUACCCUAGUGGUCGACCGGUCUGAUGAGUCUAAACCAAGACGAAACAGC [AAACCA]	0.0882 ± 0.014	1.924 ± 0.014	1.81 ± 0.016	0.122 ± 0.038
GCUGUCACCGGUGUAUUACCCUAGUGGUCGACCGGUCUGAUGAGUCUAAACCGAGACGAAACAGC [AAACCG]	0.278 ± 0.022	1.8 ± 0.029	1.37 ± 0.029	0.73 ± 0.045
GCUGUCACCGGUGUAUUACCCUAGUGGUCGACCGGUCUGAUGAGUCUUAACGAAGACGAAACAGC [UAACGA]	0.432 ± 0.054	1.91 ± 0.033	1.6909 ± 0.0004	0.324 ± 0.072
GCUGUCACCGGUGUAUUACCCUAGUGGUCGACCGGUCUGAUGAGUCUUAACGCAGACGAAACAGC [UAACGC]	0.329 ± 0.043	1.92 ± 0.058	1.74 ± 0.031	0.365 ± 0.011
GCUGUCACCGGUGUAUUACCCUAGUGGUCGACCGGUCUGAUGAGUCUAAACAUAGACGAAACAGC [AAACAU]	0.519 ± 0.022	1.86 ± 0.028	1.762 ± 0.0068	0.664 ± 0.099
GCUGUCACCGGUGUAUUACCCUAGUGGUCGACCGGUCUGAUGAGUCUCAACGAAGACGAAACAGC [CAACGA]	0.153 ± 0.16	1.951 ± 0.011	1.79 ± 0.036	0.353 ± 0.055
GCUGUCACCGGUGUAUUACCCUAGUGGUCGACCGGUCUGAUGAGUCUCAACGCAGACGAAACAGC [CAACGC]	0.362 ± 0.014	1.92 ± 0.073	1.87 ± 0.019	0.326 ± 0.019
GCUGUCACCGGUGUAUUACCCUAGUGGUCGACCGGUCUGAUGAGUCUGAACGGAGACGAAACAGC [GAACGG]	-0.137 ± 0.019	1.74 ± 0.081	1.22 ± 0.085	0.484 ± 0.059
GCUGUCACCGGUGUAUUACCCUAGUGGUCGACCGGUCUGAUGAGUCUGAACGCAGACGAAACAGC [GAACGC]	0.366 ± 0.038	1.85 ± 0.038	1.592 ± 0.0033	0.684 ± 0.031
GCUGUCACCGGUGUAUUACCCUAGUGGUCGACCGGUCUGAUGAGUCUGAACGAAGACGAAACAGC [GAACGA]	0.281 ± 0.023	1.91 ± 0.049	1.62 ± 0.046	0.454 ± 0.011
GCUGUCACCGGUGUAUUACCCUAGUGGUCGACCGGUCUGAUGAGUCUUAACAGAGACGAAACAGC [UAACAG]	0.366 ± 0.019	1.849 ± 0.012	1.5574 ± 0.00043	0.581 ± 0.031
GCUGUCACCGGUGUAUUACCCUAGUGGUCGACCGGUCUGAUGAGUCUAAACGAAGACGAAACAGC [AAACGA]	0.38 ± 0.042	1.908 ± 0.0036	1.63 ± 0.046	0.5899 ± 0.0039
GCUGUCACCGGUGUAUUACCCUAGUGGUCGACCGGUCUGAUGAGUCUAAACGGAGACGAAACAGC [AAACGG]	0.034 ± 0.0048	1.73 ± 0.061	1.23 ± 0.082	0.486 ± 0.027
GCUGUCACCGGUGUAUUACCCUAGUGGUCGACCGGUCUGAUGAGUCUGAACAUAGACGAAACAGC [GAACAU]	0.466 ± 0.11	1.907 ± 0.00016	1.766 ± 0.01	0.349 ± 0.12

Source: the supplement of paper PMC6757056
